B1: 27A2 (antibody, human IgG1, V domains shown)
VH: QEQLEESGGGLVQPEGSLTLTCTASGFSFSSNHYMSWVRQAPGKGLEWIGSIGVGSGITDYASWAKGRFTISKASSTTLTLQMTTLTAADTAIYFCARWTSGGGGFGLWGPGTLVTVSS
VL: QVLTQTSSPVSAAVGGTVTINCQSSQTIYSDYLFWYQQTPGQPPKLLIYQTSTLASGVPSRFKGSGSGTEFTLTISEIQCDDAATYYCQGYYSGYIWTFGGGTEVVVR
B2: 33E8 (antibody, human IgG1, V domains shown)
VH: QSLEESGGDLVKPGASLTLTCTASGFYFSSGYDMSWVRQAPGKGLEWIASIFTTSGSTWYANWAKGRFTISKTSSTTVTLQMTSLTDADTATYFCTKDGVGSFYMNLWGPGTLVTVSS
VL: LVMTQTPASVEVAVGGTVTIKCQASQTIGSNLAWYQQRPGQPPKLLIYKAFTLASGVSSRFKGSGSGTQFTLTISGVECADAATYYCQQGATRINIDNAFGGGTEVVVK
B3: 32E2 (antibody, human IgG1, V domains shown)
VH: QEQLEESGGDLVKPEGSLTLTCTASGFSFSSSYYMSWVRQAPGMGLEWIASISGGVTDNAYYASWAKGRFTVSKTSSTTVTLQLTSLTAADTATYFCARDSSSGYFFLLWGPGTLVTVSS
VL: LVMTQTPSSVSAAVGGTVTINCQASQNIYSNLAWYQQKPGQRPKLLIFGASNLRSGVPSRFKGSGSGTEYTLTISDLECADAATYYCQEGYSIGNVDNPFGGGTEVVVK
B4: 33H7 (antibody, human IgG1, V domains shown)
VH: QEQLVESGGGLVQPEGSLTVTCTASGFDLSRYFYMSWVRQAPGKGLEWIASISTGSDITDYASWAKGRFTISKTSSTTVTLQMTTLTAADTAIYFCARWTSGGGGFGLWGPGTLVTVSS
VL: QVLTQTASPVSAAVGGTVTLNCQSSQSIYNNYLSWYQQRAGQPPKLLIYSTATLASGVPSRFKGSGSGTQFTLTISEIQCEDAATYYCQGYYSGYIWTFGGGTEVVVK

target: T1, human PD-L1 expressed on cell surface (human, UniProt Q9NZQ7 19-290); test: flow cytometry, MDA-MB-231-GFP cells
T1 construct: also called cell surface PD-L1
T1 sequence (Q9NZQ7 19-290 limits assumed): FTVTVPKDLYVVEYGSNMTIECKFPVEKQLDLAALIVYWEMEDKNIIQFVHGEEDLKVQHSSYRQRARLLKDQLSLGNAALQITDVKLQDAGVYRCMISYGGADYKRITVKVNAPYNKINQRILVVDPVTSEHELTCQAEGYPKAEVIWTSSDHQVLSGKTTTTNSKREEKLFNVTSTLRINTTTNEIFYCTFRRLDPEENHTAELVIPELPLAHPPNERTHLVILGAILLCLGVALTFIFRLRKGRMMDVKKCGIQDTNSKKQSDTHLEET
Experimental: Cells were then resuspended in FACS buffer (1×DPBS/1% FBS) at 10⁶/ml concentration. One hundred microliter (100 μl) of cells were aliquoted into a single well in 96 well plates. The antibodies to be tested were serially diluted at 1:3 fold starting at 15 ug/mL and were then added into each well. The antibodies were mixed with cells and the mixtures were incubated on ice for 1 hour. […] After washing with FACS buffer, stained cells were resuspended at diluted […] (Biolegend, Cat #420404, used at 1:100 dilution) and analyzed on Guava 11HT (Luminex). Data was analyzed using Flowjo software.
(§1) Anti-HEL isotype control (Biolntron) was used as negative control.

Binder | EC50 [nM]
B1 | 0.14
B2 | 1.19
B3 | 18.5
B4 | 0.34

target: T2, human PD-L1-His (Sino Biological, Cat #10084-H08H) (human, UniProt Q9NZQ7 19-238); test: ELISA, coated human PD-L1-His
T2 construct: Bought protein; also called human PD-L1 ECD-His; recombinant human PD-L1-His protein; not shown: His tag
T2 sequence (Q9NZQ7 19-238): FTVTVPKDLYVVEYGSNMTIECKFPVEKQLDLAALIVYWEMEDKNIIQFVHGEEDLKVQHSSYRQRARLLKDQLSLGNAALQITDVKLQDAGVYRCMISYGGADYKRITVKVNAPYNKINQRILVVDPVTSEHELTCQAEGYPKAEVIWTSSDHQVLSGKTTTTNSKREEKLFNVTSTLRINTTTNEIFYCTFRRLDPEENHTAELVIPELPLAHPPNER
Experimental: (§2) Briefly, Maxisorp plates (Nunc) were coated with 100 ul/well of 0.5 μg/ml human PD-L1-His (Sino Biological, Cat #10084-H08H) or cynomolgus PD-L1-His (Sino Biological, Cat. 90251-C08H) protein diluted in 1×PBS (GIBCO) overnight at 4° C. Plates were washed three times with 300 μl/well washing buffer (1×PBST, diluted from 20×PBST (Thermo Scientific) with distilled water)) and then blocked with 300 μl/well of blocking buffer (1×PBST/I % BSA) for 2 hours at RT on shaker (100 rpm). Plates were washed and added with 100 μl/well of testing antibodies, which were serial diluted with assay buffer (PBST/1% BSA). The antibodies were incubated at room temperature for 2 hours on plate shaker at 100 rpm. Plates were washed. One hundred microliter of horseradish peroxidase (HRP) conjugated detection antibody was added into each well and incubated at room temperature for 1 hour on plate shaker at 100 rpm. Plates were washed and added with 100 μl/well TMB substrate for color development at room temperature in dark for up to 10 minutes. After addition of 50 μl/well of stop solution (1N H₂SO₄), plates were read at 450 nm on a plate reader (SpectraMax M5).
as §1

Binder | EC50 [nM]
B1 | 0.0146
B2 | 0.0399
B3 | 0.106
B4 | 0.0171

target: T3, cynomolgus PD-L1-His (Sino Biological, Cat. 90251-C08H) (cynomolgus, UniProt Q9NZQ7 19-238 (human entry)); test: ELISA, coated cyno PD-L1-His
T3 construct: Bought protein; also called Cyno PD-L1; Cynomolgus PD-L1 ECD-His; not shown: His tag
T3 sequence (Q9NZQ7 other isoform, or with tags, fused parts or gaps C08H C08H limits assumed): as the sequence (Q9NZQ7 19-238) above, with A33T, A34S, S62N, R68Q, Q82R, F173L, T185A, T192I, H215L counted along it
Experimental: as §2, §1

Binder | EC50 [nM]
B1 | 0.0113
B2 | 0.0414
B3 | 0.179
B4 | 0.013

target: T1, human PD-L1 expressed on cell surface; test: cell-based or functional assay

Binder | IC50 (nM), Promega PD-1/PD-L1 blockade reporter assay [nM]
B1 | 0.23
B4 | 0.52

target: T1, human PD-L1 expressed on cell surface; test: cell-based or functional assay; remark: another data set of the same source

Binder | IC50 (nM), Promega PD-1/PD-L1 blockade reporter assay, another assay [nM]
B1 | 0.35
B2 | 0.38

target: T4, human PD-L1-mFc fusion protein (Sino Biological, Cat #10084-H05H) (human, UniProt Q9NZQ7 19-239); test: competition ELISA, coated human PD-L1-mFc, competitor human PD-1-His-hFc-Biotin
T4 construct: Bought protein; also called human PD-L1 mouse Fc fusion protein; not shown: mouse Fc
T4 sequence (Q9NZQ7 19-239 limits assumed): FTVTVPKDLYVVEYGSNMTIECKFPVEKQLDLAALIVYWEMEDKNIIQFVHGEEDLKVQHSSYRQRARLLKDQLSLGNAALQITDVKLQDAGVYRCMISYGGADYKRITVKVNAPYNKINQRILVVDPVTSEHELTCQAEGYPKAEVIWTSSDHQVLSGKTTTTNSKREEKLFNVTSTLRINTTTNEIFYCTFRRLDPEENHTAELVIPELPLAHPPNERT
Experimental: Briefly, microplates were precoated with […] of human PD-L1-mFc fusion protein (Sino Biological, Cat #10084-H05H) diluted in 1×PBS (GIBCO) and incubated overnight at 4° C.; Plates were washed four times with 300 μl/well washing buffer (1×PBST, diluted from 20×PBST (Thermo Scientific) with distilled water)) and then blocked with 300 μl/well of blocking buffer (1×PBST/3% BSA) for 2 hours at RT on shaker (100 rpm). […] Plates were washed and added with 100 μl/well TMB substrate for color development at room temperature in dark for up to 10 minutes. After addition of 50 μl/well of stop solution (1N H₂SO₄), plates were read at 450 nm on a plate reader (SpectraMax M5).

Binder | IC50 [nM]
B1 | 1.9
B2 | 3.1
B3 | 7.5
B4 | 2.1

target: T1, human PD-L1 expressed on cell surface; test: cell-based or functional assay; remark: another data set of the same source

Binder | Internalization (%), FACS, 0.25 µg/ml, 2 h [%] | Internalization (%), FACS, 0.25 µg/ml, 4 h [%] | Internalization (%), FACS, 0.5 µg/ml, 2 h [%] | Internalization (%), FACS, 0.5 µg/ml, 4 h [%] | Internalization (%), FACS, 1 µg/ml, 2 h [%] | Internalization (%), FACS, 1 µg/ml, 4 h [%] | Internalization (%), FACS, 2 µg/ml, 2 h [%] | Internalization (%), FACS, 2 µg/ml, 4 h [%]
B1 | 18.5 | 18.3 | 15.5 | 14.7 | 13.7 | 13.7 | 12.7 | 9.7
B2 | 20.9 | 21.6 | 22.8 | 25.8 | 20.4 | 23.3 | 29.6 | 30.2
B3 | 2.2 | -25.9 | 0.4 | 5.6 | 1.1 | 7.2 | 2.4 | 7.6
B4 | 15.2 | 12.3 | 17 | 14.2 | 14.4 | 12.4 | 17.8 | 12.6

Source: US20250171542A1 (ADEPT THERAPEUTICS, published 2025)
